Experimental data published in article PMC3205914 (Nature cell biology, 2010).

Experiments:
[1] = target: the molecule itself; experiment: light scattering
[2] = target: T1, ParB (Caulobacter crescentus centromere-binding protein), immobilized for SPR (C. crescentus, UniProt B8GW30 1-304); experiment: SPR
T1 sequence (looked up): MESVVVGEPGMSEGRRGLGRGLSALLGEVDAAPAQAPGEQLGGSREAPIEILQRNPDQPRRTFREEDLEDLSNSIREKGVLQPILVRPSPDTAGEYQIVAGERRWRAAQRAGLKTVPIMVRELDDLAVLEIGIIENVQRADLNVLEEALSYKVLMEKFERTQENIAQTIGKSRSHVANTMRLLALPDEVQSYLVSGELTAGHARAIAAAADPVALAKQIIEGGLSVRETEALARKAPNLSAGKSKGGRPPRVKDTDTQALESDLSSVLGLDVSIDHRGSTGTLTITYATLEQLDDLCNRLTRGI

[3] = target: T2, 6His–ParB (Caulobacter crescentus) (C. crescentus, UniProt B8GW30 1-304); experiment: SPR
T2 sequence (looked up): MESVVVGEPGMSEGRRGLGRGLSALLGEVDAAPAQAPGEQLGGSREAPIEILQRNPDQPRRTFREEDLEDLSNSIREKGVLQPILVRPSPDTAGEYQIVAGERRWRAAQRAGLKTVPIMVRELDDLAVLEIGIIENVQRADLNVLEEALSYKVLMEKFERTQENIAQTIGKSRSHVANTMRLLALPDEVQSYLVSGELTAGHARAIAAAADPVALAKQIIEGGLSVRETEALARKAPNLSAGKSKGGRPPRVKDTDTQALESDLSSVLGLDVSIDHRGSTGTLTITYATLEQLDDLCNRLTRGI

- binding result [2]: binds
- binding result [3]: binds
B1: ParA (Caulobacter crescentus ATPase ParA), purified (enzyme, C. crescentus, UniProt B8GW31 1-267, looked up)
chain: MSANPLRVLAIANQKGGVGKTTTAINLGTALAACGERVLLIDADPQGNCSTGLGIGRTQRRTTLYDVLMGEAPVVDAAVKTELPGLDVIPADADLSGVEIELGQTARRSYRLRDALEAIRANGPYTYVLIDCPPSLNVLTVNAMTAADAVFVPLQCEFFALEGLTQLMRTIERVRGSLNPRLEIQGVVLTMYDRRNSLSEQVAKDVRAHFGDKVYDAVIPRNVRVSEAPSFGKPVLLYDLKCAGSQAYLKLAREVISRERDRQAKAA
- binding result [1]: binds
